Columns and labels:
Assay in all cases: pull-down; amylose pulldown, ORC with MBP-tagged Orc4 as bait; 0.5 uM ScORC, 0.5 uM 84 bp ARS1 dsDNA, 1 uM ScCdc6, 10 uM ScMcm7 (titrations 1.5, 5, 10 uM), 2 mM ATPγS; 25 mM HEPES pH 7.5, 300 mM potassium acetate, 10 mM magnesium acetate, 1 mM DTT; on ice; maltose elution, Coomassie-stained SDS-PAGE
Conditions in all cases: both partners purified
[1] = target: T1, ScORC·DNA·Cdc6 with MBP-tagged ORC (full-length Orc6), ORC dephosphorylated with λ phosphatase (S. cerevisiae, UniProt P54784 1-914; P32833 1-620; P54790 1-616; P54791 1-529; P50874 1-479; P38826 …, ORC treated with λ phosphatase | ORC treated with λ phosphatase)
T1 construct: Orc1, S. cerevisiae, wild type; Orc2, S. cerevisiae, wild type; Orc3, S. cerevisiae, wild type; Orc4, S. cerevisiae, wild type; Orc5, S. cerevisiae, wild type; Orc6, S. cerevisiae, wild type; Cdc6, S. cerevisiae, wild type; ORC (10 uM) dephosphorylated with 16.7 units/uL λ phosphatase, 10 min, 30 °C, before assembly with DNA, Cdc6 and ATPγS; also called dephosphorylated MBP-ORC·DNA·Cdc6; source: …

[2] = target: T2, ScORC·DNA·Cdc6 with MBP-tagged ORC holding Orc6 ΔCBN (Orc6Δ1-120), ORC dephosphorylated with λ phosphatase (S. cerevisiae, UniProt P54784 1-914; P32833 1-620; P54790 1-616; P54791 1-529; P50874 1-479; P38826 …, ORC treated with λ phosphatase | ORC treated with λ phosphatase)
T2 construct: Orc1, S. cerevisiae, wild type; Orc2, S. cerevisiae, wild type; Orc3, S. cerevisiae, wild type; Orc4, S. cerevisiae, wild type; Orc5, S. cerevisiae, wild type; Orc6, S. cerevisiae, truncation Orc6Δ1-120 (lacks the N-terminal cyclin box fold); Cdc6, S. cerevisiae, wild type; ORC dephosphorylated before assembly with DNA, Cdc6 and ATPγS; also called Orc6 ΔCBN, λ phosphatase; Orc6^ΔN120; source: …

[3] = target: T3, ScORC·DNA·Cdc6 with MBP-tagged ORC holding Orc6 ΔCBN/Δlinker (Orc6Δ1-269), ORC untreated (S. cerevisiae, UniProt P54784 1-914; P32833 1-620; P54790 1-616; P54791 1-529; P50874 1-479; P38826 …)
T3 construct: Orc1, S. cerevisiae, wild type; Orc2, S. cerevisiae, wild type; Orc3, S. cerevisiae, wild type; Orc4, S. cerevisiae, wild type; Orc5, S. cerevisiae, wild type; Orc6, S. cerevisiae, truncation Orc6Δ1-269 (lacks the N-terminal cyclin box fold and the flexible linker); Cdc6, S. cerevisiae, wild type; also called Orc6^ΔN269; source: MBP-ORC: High5 insect cells, purified (no TEV cleavage); Cdc6: …

[4] = target: T4, ScORC·DNA·Cdc6 with MBP-tagged ORC holding Orc6 ΔCBN/Δlinker (Orc6Δ1-269), ORC dephosphorylated with λ … (S. cerevisiae, UniProt P54784 1-914; P32833 1-620; P54790 1-616; P54791 1-529; P50874 1-479; P38826 …, ORC treated with λ phosphatase)
T4 construct: Orc1, S. cerevisiae, wild type; Orc2, S. cerevisiae, wild type; Orc3, S. cerevisiae, wild type; Orc4, S. cerevisiae, wild type; Orc5, S. cerevisiae, wild type; Orc6, S. cerevisiae, truncation Orc6Δ1-269 (lacks the N-terminal cyclin box fold and the flexible linker); Cdc6, S. cerevisiae, wild type; ORC dephosphorylated before assembly with DNA, Cdc6 and ATPγS; also called Orc6 ΔCBN/Δlinker, λ …

[5] = target: T5, ScORC·DNA·Cdc6 with MBP-tagged ORC holding Orc6 ΔCBN/Δlinker (Orc6Δ1-269), ORC phosphorylated by CDK (S. cerevisiae, UniProt P54784 1-914; P32833 1-620; P54790 1-616; P54791 1-529; P50874 1-479; P38826 …, ORC treated with CDK; phosphorylated sites not given)
T5 construct: Orc1, S. cerevisiae, wild type; Orc2, S. cerevisiae, wild type; Orc3, S. cerevisiae, wild type; Orc4, S. cerevisiae, wild type; Orc5, S. cerevisiae, wild type; Orc6, S. cerevisiae, truncation Orc6Δ1-269 (lacks the N-terminal cyclin box fold and the flexible linker); Cdc6, S. cerevisiae, wild type; ORC phosphorylated by CDK before assembly with DNA, Cdc6 and ATPγS; also called Orc6 ΔCBN/Δlinker, …

Measured: binding result

B1: S. cerevisiae Mcm7 (ScMcm7) (natural protein, UniProt P38132 1-845, looked up)
chain: MSAALPSIQLPVDYNNLFNEITDFLVTFKQDTLSSDATRNENEDENLDAENIEQHLLEKGPKYMAMLQKVANRELNSVIIDLDDILQYQNEKFLQGTQADDLVSAIQQNANHFTELFCRAIDNNMPLPTKEIDYKDDVLDVILNQRRLRNERMLSDRTNEIRSENLMDTTMDPPSSMNDALREVVEDETELFPPNLTRRYFLYFKPLSQNCARRYRKKAISSKPLSVRQIKGDFLGQLITVRGIITRVSDVKPAVEVIAYTCDQCGYEVFQEVNSRTFTPLSECTSEECSQNQTKGQLFMSTRASKFSAFQECKIQELSQQVPVGHIPRSLNIHVNGTLVRSLSPGDIVDVTGIFLPAPYTGFKALKAGLLTETYLEAQFVRQHKKKFASFSLTSDVEERVMELITSGDVYNRLAKSIAPEIYGNLDVKKALLLLLVGGVDKRVGDGMKIRGDINVCLMGDPGVAKSQLLKAICKISPRGVYTTGKGSSGVGLTAAVMKDPVTDEMILEGGALVLADNGICCIDEFDKMDESDRTAIHEVMEQQTISISKAGINTTLNARTSILAAANPLYGRYNPRLSPLDNINLPAALLSRFDILFLMLDIPSRDDDEKLAEHVTYVHMHNKQPDLDFTPVEPSKMREYIAYAKTKRPVMSEAVNDYVVQAYIRLRQDSKREMDSKFSFGQATPRTLLGIIRLSQALAKLRLADMVDIDDVEEALRLVRVSKESLYQETNKSKEDESPTTKIFTIIKKMLQETGKNTLSYENIVKTVRLRGFTMLQLSNCIQEYSYLNVWHLINEGNTLKFVDDGTMDTDQEDSLVSTPKLAPQTTASANVSAQDSDIDLQDA
notes: Mcm7, S. cerevisiae; migrates as a doublet on SDS-PAGE; source: E. coli BL21 RIL, purified (HisTrap, amylose, TEV cleavage, HisTrap, gel filtration); not shown: His6, N-terminal, cleaved; MBP, N-terminal, cleaved
binds: all assays above

Source: paper PMC8881611, “A mechanism of origin licensing control through autoinhibition of S. cerevisiae ORC·DNA·Cdc6” (Nature Communications, 2022)
